Assay results: the nanobody polyreactivity screen of Harvey et al. (2022)

Assay: yeast display, Sf9 membrane polyspecificity reagent, FACS + sequencing; frameworks hold sequencing errors
Procedure, shortened: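 After 36–48 hours of galactose induction, yeast (Saccharomyces cerevisiae BJ5465) displaying a synthetic nanobody library were stained at 4 °C for 1 hour with 10% biotinylated, detergent-solubilized Sf9 membrane reagent. Streptavidin microbeads enriched the stained cells before FACS sorting into low and high (top ~1%) gates on anti-HA and streptavidin fluorescence. Each clone's polyreactivity label reflects its gate of origin.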

Row | Sequence | polyreactivity (PSR sort gate)
1 | QVQLVESGGGLVQAGGSLRISCAASGITFVPNAMGWYRQAPGKERELVAAITGNGGRTYYADSVKGRFTISRDNAKNTVYLQMNSLKPEDTAVYYCNARKLYWAYTLRKYDYWGQGTQVTVSS | high polyreactivity
2 | QVQLVESGGGLVQAGGSLRLSCAASGRIFGYYAMGWYRQAPGKERELVAVISWSGGSTYYADSVKGRFTISRDNAMNTVYLQMNSLKPEDSAVYYCAAERLYSIYDYWGQGTQVTVSS | high polyreactivity
3 | QVQLVESGGGLVQAGGSLRLSCAASGNIYNYAMGWYIQAPGKERELVAAIRSSDGSTYYADSVKGRFTISRDNAKNTVYLQMNSLKPEDTAVYDCARRTRRTSTYYYYGSRYYYWGQGTQVTVSS | high polyreactivity
4 | QVQLVESGGGLVQAGGSLRLSCAASGFIFYRYTMGWSRQAPGKERELVAGSSSRGTRTYYADSVKGRFTISRDNAKNTVYLQMNSLKPEDTAVYYCAKVDGSKRYNYWGQGTQVTVSS | high polyreactivity
5 | QVQLVESGGGLVQAGGSLRLSCAASGSTFDGNVMGWYRQAPGKERELVADIDSGGSTNYADSVKGRFTISRDNAKNTVYLQMNSLKPEDTAVYYCKAEWDDSFIRWFRYRGNYWGQGTQVTVSS | low polyreactivity
6 | QVQLVESGGCLVQAGGSLRLSCAASGLIFGDYAMGWYRPAPGKESELVAAITGSFTRTYYADSVKGSFTISRDNAKNTVYLQMNSLKPEDTAVYYCAADWYKRPPYVYWGQGTQVTLSS | low polyreactivity
7 | QVQLVESGGGLVQAGGSLRLSCAASGYIFTEYDMGWSRQAPGKERELVAANSESGGSTYYADSVKGRFTISRDNAKNTVYLQMNSLKPEDTAVYYCAADQYYYWYTHQSIGYDYWGQGTQVTVSS | low polyreactivity
8 | QVQLVESGGGLVQAGGSLRLSCAASGRIIGWYAMGWYRQAPGKERELVAAISQDATRTYYADSVTGRFTISRDHAKNTVYLQMLRLKPEDTAVYNCNVVYRYAGWSYDSWGQGTQVTVSS | high polyreactivity
9 | QVQLVESGGGLVQAGGSLRLSCAASGITFYDYAMGWYRQAPGKERELVAAISFSGSRTYYADSVKGRFTISRDHAKNTVSLQMNSLKPDDTAVYYCAASQASNYKIYDYWGQGTQVTVSS | high polyreactivity
10 | QFQLVESGGGLVQAGGSLRLSCAASGFTYYFYAMGWYRPAPGKERELVAAISRGGSTTYADSVKGRFTISRDNAKNTVYLQMYSLKPEDTAVYYCGADDYYDPHYEYDFWGQGTQVTVSS | low polyreactivity
11 | QVQLVESGGGLVQAGGSLRLSCAASGRIFRYYAMGWYRQAPGKEMELVAAITRGGSTNYADSVKGRFTISRDNAKNTGYLQMNSLKPEDTAVYYCATRQSWYPRWMDYWGQCTQVTVSS | high polyreactivity
12 | QVQLVESGGGLVQAGGSLRLSCAASGSTFAYYAMGWYRHAPGKERELVAAISSGGSTYYADSVKGRFTISRDNAKNTVYLQMNSLKPEDTEVYYCNKLWVGKFKRYEFGYWGQGSQVTVSS | low polyreactivity
13 | QVQLVESGGGLVQAGGSLRLSCAASGFTFTRNAMGWYRQAPGKERELVAAISSSAGSTSYADSVKGRFTISRDNAKNTVYLQMNSLKPEDTAVYYCAKSYRSSRRYNYWGQGTQVTVSS | high polyreactivity
14 | QVQLVESGGGLVQAGGSLRLSCAASGIIFYHNTMGWYRQAPGKERELVAAISGSGGSTYYADSVKGRFTISRDNEKNTVYLQMKSLKPEDTAVYYCAAYRRRYPGFDYWGQGTQVTVSS | high polyreactivity
15 | QDQLVESGGVLVQAGGSLRLSCAASGFIFNRYAMGWYRQAPWKERELVAANTRTGSTNYADSVKGRFTISRYNAKYTVYLQMSCLKPEDTAVFYCAAVYLSLGRPYYTFEYWGQGTQVTVSS | high polyreactivity
16 | QVQLVESGGGLVQAGGSLRLSCAASGSIYASNTMGWYRQAPGKERELVAGITKIGSSTYYADSVKGRFTISRDNAKNTVYLQMNSLKPEDTAVYYCNAYGPNIYSSRYDYWGQGTQVTVSS | low polyreactivity
17 | QVQLVESGGGLVQAGGSLRLSCAASGRIFTGNALGWYRPAPGKERELVAVINRTGGSTYYADSVKGRFTISRDNAKNTVYLQMNSLKPEETAVYSCAAYVPWGWRYGYNYWGQGTQVTVSS | high polyreactivity
18 | QVQLVESGGGLVQAGGSLRLSCAASGSTFNSYAMGWYRQAPGKERELVAAISWSGGSTYYADSVKGRFTISRDNAKNTVYLQMNSLKPEDTAVYYCNADYWWEYAYGVDYWGQGTQVTVSS | low polyreactivity
19 | QVQLVESGGGLVQAGGSLRLSCAACGFTFWKYAMGWYRQAPGKERELVAAITSGGNTYYADSVKGRFTISRDNAKNTVYLQMNSLKPEDTAVYYCATSGPRGWSLHDYWGQGTQVTVSS | high polyreactivity
20 | QVQLVESGGGLVQAGGTLRLSCAASGRTFGTYAMGWYRQEPGKERELVAAIRSNAGSTYYADSVKGRFTISRDNAKNTVYLQMNSLKPEDTAVYYCAKSYPSSRRYNFWGQGTQVTVSS | high polyreactivity
21 | QVQLEESGGGLVQAGGSLRLSCAASGYIFYEYAMGWYRQAPGKERELVAAISRRGGRTYYADSVKGRFTISRDNAKNTVYLQMHSLKPEDTAVYYCAASVRFGDYEYWGQGTQVTVSS | high polyreactivity
22 | QVQLVESGGGLGQAGGSLRLSCAASGLIFFFYAMGWYRQAPGKERELVASISGGGITYYADSVKGRFTISRDNAKNTVYLQMYSLKPEDTAVIKNDFWGQGTQVTVSS | low polyreactivity

Row | Sequence | polyreactivity (PSR sort gate)
23 | QVQLVESGGGLVQAGGSLRLSCAASGSTSYRNAMGWYRQAPGIEREFVAAISWSGGSTYYADSVKGRFTISRDNAKNTVYLQMNSLKPEDTAVYYCATTVTQWGQGTQVTVSS | low polyreactivity
24 | QVQLVESGGGLVQAGGSLRLSCAASGYNFWYNGMGWYRQAPGKERELVAAITSSSGTTYYADSVKGRFTISRDNAKTTVYLQMNSLKPVDTSVYYFNAVLSSNTQCRYPGDYWGQGTQVTVSS | low polyreactivity
25 | QVQLVESGGGLVQAGGSLRLSCAASGRTFYVYDMGWYREAPGKVRELVAFISSSGSTNYADSVKGRFTISRDNAKYTVYLQMNSLKPEDTAGYYCNKRLIYYRGTYYSRRFDYWGQGTQVTVSS | high polyreactivity
26 | QVQLVESGGGLVQAGGSLRLSCAASGFILDYNAMGWYRQAPGKERELVATITGRGDRTYYADSVKGRFTISRDNAKNTVYLQMNSLKPEDTAVYYCAAGFDGSRHPGFDSWGQGTQVTVSS | low polyreactivity
27 | QVQLVESGGGLVQAGGSLRLSCAASGFIFFGYAMGWYRQAPGKERELVAAITSGGSTYYADSVKGRFTISRDNAKNTVYLQMNSLKPEDTAVYYCAASRVRYSYGYPYYYWGQGTQVTVSS | high polyreactivity
28 | QVQLVESGGGLVQAGGSLRLSCAASGSTFDVYARGGYRQAPGKERELVAAITSGGTTNYADSVKGRFTLSRDNAKNTVYLQMNSLKPEDTAVYYCAKDSRNVYWDYGYWGQGTQVTVSS | low polyreactivity
29 | QVQLVESGGGLVQAGGSLRLSCAASGSIFADYAMGWYRQAPGKERELVAGISGRGGRTYYADSVKGRFTISRDYAKNTVYLQMNSLKPEDTAVYYCAAKYNYYTWPTRYTATGYYYWGQGTQVTVSS | high polyreactivity
30 | QVQLVESGGGIVQAGGSLRLRCAASGYTFEDNDMGLYRQAPGKERELVAAISVNGGSTYYADSVKGRFTISRDNAKKTVYLQMNSLKPVDTAVFYCNVDTLIGSLYGYDYWGQGTQVTVSS | high polyreactivity
31 | QVQLVESGGGLVQAGGSLRLSCAASGGIFRINAMGWYRQAPGKERELVAAITSSVGSTYYADSVKGRFTISRDNAKNTVYLQMNSLKPEDTAVYYCAAVITRDAIVFSTEYDYWGQGTQVTVSS | low polyreactivity
32 | QVQLVESGGGLVQAGGSLRLSCAASGFTFYNYAMGWYRQAPGKERELVAAISWSGGSTHYADSVKGRFTISRDNAKNTVYLQMNSLKPEDTAVYYCAKFGVLGYYTYYYWGQGTQVTVSS | low polyreactivity
33 | QVQLVESGGGLVQAGGSLRLSCAASGSIFWPNAMGWYRQAPGKERELVAAISWGTGSTYYADSVKGRFTISRDNAKNTVYLQMNSLKPEDTAVYYCAADGAYLDPYYDYWGQGTQVTVSS | low polyreactivity
34 | QVQLVESGVGLVQAGGSLRLSCAATGFTFYWYTMGWYIQAPGKERELVAAISASGGRTYYADSVKGRFTISRDNAKNTVYLQMNSLKPEDTAVYYCAARFRTWGNREAGYYWGQGTQVTVSS | high polyreactivity
35 | QVQLVESGGGLVQAGASLRLSCAASGIIVTQYAMGWYRQAPGKESEIVATFSSGGARTYYADSVKGRFTISRDNAKNTVYLQMKSQKPEDTAVYYCDARRYRGYSPPYDYCGQGTQVTVSS | high polyreactivity
36 | QVQLVESGGGLVQAGGSLRLSCAASGRIFGVYAMGWYRQAPGKERELVASISDGTITNYADSVKGRFTISRDNAKNTVYLQMNSLKPEDTAVYYCAATWSFVYGDYFEYDYWGQGTQVTVSS | low polyreactivity
37 | QVQLVESGGGLVQAGGSLRLSCAAYGSIFAHYAMGWYRQAPGKERELVARISWSGGSTYYADSVKGRFSISLDNAKNTVYLQMNSLKPEDTAVYYCSADLTSKSSPQGYRYDYWGQGTQVTVSS | low polyreactivity
38 | QVQLVESGGGLVQAGGSLRLSCAASGSTFSRYAMGWYRQAPGKERELVAAISSGDRTNYADSVKGRFTISRDNAKNTVYLQMNSLKPEDTAVYYCADDLFPIAGEYDYWGQGTQVTVSS | high polyreactivity
39 | QVQLVESGGGLVQAGGSLRLSCAASGRILKYYAMGWYRQAPGKERELVAAISGSSGSTYYADSVKGRFTISRDNAKNTVYLQMNSLKPEDTAVYYCAAQGRDSTPHGYWGQGTQVTVSS | high polyreactivity
40 | QVQLEESGGGLVQAGGSLRLSCAASGSTFAVYAMGWYRQAPGKERELVAAINRSGDSTYYADSVKGRFTISRDNAKNTVYLQMNSLKPEDTAVYYCAAYQRVRSGVDMYSWGQGTQVTVSS | high polyreactivity
41 | QVQLVESGGGLVQAGGSLRLSCAASGGIFKSYAMGWYRQAPGKERELVAAISASGGRTYYADSVKGRFTISRDNAKNTVYLQMNSLKPEDTAVYYCAAKVGYTTALNYWGQGTQVTVSS | high polyreactivity
42 | QVQLVESGRGLVQAGGSLRLSCAASGYTFGYNAMGWYRQAPGKERELVATNSSGRTTTYADSVKGRFTISRDNAKNNVYLQMNSLKPEDNAGYYCATPVYRSSYEYDYWGQGTQVTVSS | low polyreactivity
43 | QVQLVESGGGLVQAGGRLRLSCAASGRIFDLNAMGWYRQAPGKERELVADINSGGSTYYADSVKGRFTISRDNAKNTVYLQMNSLKPEDTAVYYCDVRRNQHVVQMYYWGQGTQVTVSS | low polyreactivity
